According to paper PMC6853987, “ClpP protease activation results from the reorganization of the electrostatic interaction networks at the entrance pores” (Communications Biology, 2019):

B1: Escherichia coli ClpP (EcClpP), wild type (enzyme)
chain: not shown
notes: ClpP protease proteolytic subunit, E. coli; Crystallised with the small molecule ACP1-06; An unexplained density extends from S111 in the structure (possible covalent modification, not identified); also called E. coli ClpP; caseinolytic protease P; copies: 14
B2: Neisseria meningitidis ClpP (NmClpP), wild type (enzyme)
chain: not shown
notes: ClpP, N. meningitidis MC58; expressed full length with N-terminal His6 tag and TEV site; also called apo-NmClpP; WT NmClpP; not shown: His6, N-terminal, cleaved; copies: 14

Experiments:
[1] = target: the molecule itself; assay: crystal structure; EcClpP 10 mg/mL in 10 mM HEPES pH 7.5, 200 mM NaCl with 5 mM ACP1-06; well 51-63% MPD, 0.1 M sodium acetate pH 5.0, room temperature; self-association (tetradecamer)
[2] = target: the molecule itself; assay: crystal structure; apo-NmClpP 5 mg/mL in 25 mM TrisHCl pH 7.5, 100 mM KCl; well 0.2 M potassium thiocyanate, 40% MPD, room temperature; self-association (tetradecamer)

Protein	stoichiometry N [1]	stoichiometry N [2]
B1	14	
B2		14
